{"source": "paper PMC10084705", "target": "SARS-CoV-2 main protease M^pro-C145A (SARS-CoV-2)", "assay": "cryo-EM structure", "data": [{"substance": "SARS-CoV-2 main protease M^pro-C145A (enzyme)", "values": [{"measurement": "stoichiometry N", "value": 2}]}]}
